Results reported in patent US20140179604A1 (U S A REPRESENTED BY THE DEPARTMENT OF VETERANS AFFAIRS, published 2014).
Non-standard residues stand in square brackets, D forms with d. No end group written: not given here. *: point of attachment. Desaminotyrosyl = O=C(CCc1ccc(O)cc1)*; NMeY = CN[C@@H](Cc1ccc(O)cc1)C(=O)O; Nle = CCCC[C@H](N)C(=O)O; Orn = NCCC[C@H](N)C(=O)O; Abu = CC[C@H](N)C(=O)O; Aoc = NCCCCCCCC(=O)O; Ava = NCCCCC(=O)O

Tests used:
[1] = target: T1, GHRH receptor (membrane receptors of human anterior pituitary cells) (human) (UniProt Q02643); assay: competition with 125I-JV-1-42, human pituitary membranes
T1 sequence (looked up): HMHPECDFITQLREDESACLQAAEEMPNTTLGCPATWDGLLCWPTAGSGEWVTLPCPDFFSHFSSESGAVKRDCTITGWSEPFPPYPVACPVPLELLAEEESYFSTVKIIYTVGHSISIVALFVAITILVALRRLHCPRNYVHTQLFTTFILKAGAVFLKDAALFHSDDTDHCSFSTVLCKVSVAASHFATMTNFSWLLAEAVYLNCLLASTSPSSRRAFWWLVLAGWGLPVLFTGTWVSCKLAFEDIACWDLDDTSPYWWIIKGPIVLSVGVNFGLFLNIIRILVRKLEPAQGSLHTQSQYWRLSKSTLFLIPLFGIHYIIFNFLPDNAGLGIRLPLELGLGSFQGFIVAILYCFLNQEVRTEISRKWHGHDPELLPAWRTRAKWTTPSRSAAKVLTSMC

[2] = target: T1, GHRH receptor (membrane receptors of human anterior pituitary cells) (human); assay: competition with 125I-[His1,Nle27]hGHRH(1-32)NH2, human pituitary membranes
[3] = target: T2, GHRH receptor (membrane receptors of human anterior pituitary cells) (human, UniProt Q02643 23-423); assay: competition with 125I-JV-1-42, human pituitary membranes
T2 construct: whole, on cells; Native receptor in a membrane fraction of purchased normal human pituitaries, not intact cells; also called hGHRH receptor; human pituitary membrane homogenates
T2 sequence (looked up): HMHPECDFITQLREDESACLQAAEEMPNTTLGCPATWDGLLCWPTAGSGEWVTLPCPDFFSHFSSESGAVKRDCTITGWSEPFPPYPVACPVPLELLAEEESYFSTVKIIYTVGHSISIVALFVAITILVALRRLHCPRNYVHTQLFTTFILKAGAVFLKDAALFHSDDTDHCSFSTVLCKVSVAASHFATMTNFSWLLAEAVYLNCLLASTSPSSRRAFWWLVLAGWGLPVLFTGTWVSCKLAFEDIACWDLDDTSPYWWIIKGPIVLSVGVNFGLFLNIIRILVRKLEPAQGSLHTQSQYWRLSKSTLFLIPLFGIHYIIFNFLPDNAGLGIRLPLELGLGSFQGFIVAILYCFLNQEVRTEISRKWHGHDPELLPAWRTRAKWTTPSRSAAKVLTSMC
Text: Normal human pituitaries were purchased from the National Hormone and Peptide Program (A. F. Parlow, Los Angeles, County Harbor-UCLA Medical Center, Torrance, Calif.).

[4] = target: T2, GHRH receptor (membrane receptors of …); assay: competition with 125I-[His1,Nle27]hGHRH(1-32)NH2, human pituitary membranes

| Binder | IC50 [1] | Relative affinity (Binding potency) vs JI-38 [1] | further results |
| --- | --- | --- | --- |
| [Desaminotyrosyl]ADAIFTQSYH[Orn]VL[Abu]QLSAH[Orn]LLQDI[Nle]DR-NHMe (peptide, from a related filing, SMILES CCCC[C@H](NC(=O)[C@@H](NC(=O)[C@H](CC(=O)O)NC(=O)[C@H](CCC(N)=O)NC(=O)[C@H](CC(C)C)NC(=O)[C@H](CC(C)C)NC(=O)[C@H](CCCN)NC(=O)[C@H](Cc1c[nH]cn1)NC(=O)[C@H](C)NC(=O)[C@H](CO)NC(=O)[C@H](CC(C)C)NC(=O)[C@H](CCC(N)=O)NC(=O)[C@H](CC)NC(=O)[C@H](CC(C)C)NC(=O)[C@@H](NC(=O)[C@H](CCCN)NC(=O)[C@H](Cc1c[nH]cn1)NC(=O)[C@H](Cc1ccc(O)cc1)NC(=O)[C@H](CO)NC(=O)[C@H](CCC(N)=O)NC(=O)[C@@H](NC(=O)[C@H](Cc1ccccc1)NC(=O)[C@@H](NC(=O)[C@H](C)NC(=O)[C@H](CC(=O)O)NC(=O)[C@H](C)NC(=O)CCc1ccc(O)cc1)[C@@H](C)CC)[C@@H](C)O)C(C)C)[C@@H](C)CC)C(=O)N[C@@H](CC(=O)O)C(=O)N[C@@H](CCCNC(=N)N)C(=O)NC) [P-27413 [Dat^1, Gln^8, His^11, Orn^12, Abu^15, His^20, Orn^21, Nle^27, Asp^28]hGHRH(1-29)NH-CH3] | 2.45 nM | 1.78 JI-38 = 1 | – |
| [NMeY]ADAIFTQSYR[Orn]VL[Abu]QLSAR[Orn]LLQDI[Nle]SR-NHMe (peptide, from a related filing) [P-27405 [N-Me-Tyr^1, Gln^8, Orn^12, Abu^15, Orn^21, Nle^27]hGHRH(1-29)NH-CH3] | 1.08 nM | 4.03 JI-38 = 1 | IC50 [2]: 2.51 nM; Relative affinity (Binding potency) compared to JI-38 [2]: 1.09 JI-38 = 1; Relative affinity (Binding potency) compared to hGHRH(1-29) (hGHRH(1-29)NH2 = 1) [2]: 3.04 |
| [NMeY]ADAIFTNSYR[Orn]VL[Abu]QLSAR[Orn]LLQDI[Nle]DR[Aoc]-NH2 (peptide, from a related filing, N-terminus assumed; SMILES CCCC[C@H](NC(=O)[C@@H](NC(=O)[C@H](CC(=O)O)NC(=O)[C@H](CCC(N)=O)NC(=O)[C@H](CC(C)C)NC(=O)[C@H](CC(C)C)NC(=O)[C@H](CCCN)NC(=O)[C@H](CCCNC(=N)N)NC(=O)[C@H](C)NC(=O)[C@H](CO)NC(=O)[C@H](CC(C)C)NC(=O)[C@H](CCC(N)=O)NC(=O)[C@H](CC)NC(=O)[C@H](CC(C)C)NC(=O)[C@@H](NC(=O)[C@H](CCCN)NC(=O)[C@H](CCCNC(=N)N)NC(=O)[C@H](Cc1ccc(O)cc1)NC(=O)[C@H](CO)NC(=O)[C@H](CC(N)=O)NC(=O)[C@@H](NC(=O)[C@H](Cc1ccccc1)NC(=O)[C@@H](NC(=O)[C@H](C)NC(=O)[C@H](CC(=O)O)NC(=O)[C@H](C)NC(=O)[C@H](Cc1ccc(O)cc1)NC)[C@@H](C)CC)[C@@H](C)O)C(C)C)[C@@H](C)CC)C(=O)N[C@@H](CC(=O)O)C(=O)N[C@@H](CCCNC(=N)N)C(=O)NCCCCCCCC(N)=O) [P-21301 [N-Me-Tyr^1, Orn^12, Abu^15, Orn^21, Nle^27, Asp^28, Amc^30]hGHRH(1-30)NH2] | 2.99 nM | 1.45 JI-38 = 1 | – |
| YADAIFTNSYRKVLGQLSARKLLQDIMSRQ (peptide, from a related filing, N-Me-Tyr^1; Abu^2; Orn^12; Abu^15; Orn^21; Nle^27; Gab^30 (in place of Gln^30); C-terminal -NH2) [P-25503 [N-Me-Tyr^1, Abu^2, Orn^12, Abu^15, Orn^21, Nle^27, Gab^30]hGHRH(1-30)NH2] | 1.18 nM | 3.67 JI-38 = 1 | – |
| [NMeY][dA]DAIFTQSYR[Orn]VL[Abu]QLSAR[Orn]LLQDI[Nle]DR-NHEt (also called MR-420; Peptide 28420) [P-28420 [N-Me-Tyr^1, D-Ala^2, Gln^8, Orn^12, Abu^15, Orn^21, Nle^27, Asp^28]hGHRH(1-29)NH-CH2-CH3] | – | – | IC50 [3]: 0.52 nM; Relative affinity (Binding potency) vs JI-38 [3]: 8.37 JI-38 = 1; IC50 [4]: 2.7 nM; Relative affinity (Binding potency) compared to JI-38 [4]: 1.01 JI-38 = 1; Relative affinity (Binding potency) compared to hGHRH(1-29) [4]: 2.83 hGHRH(1-29)NH2 = 1 |
| [NMeY]ADAIFTQSYR[Orn]VL[Abu]QLSAR[Orn]LLQDI[Nle]DR[Ava]-NH2 (peptide, from a related filing, N-terminus assumed; SMILES CCCC[C@H](NC(=O)[C@@H](NC(=O)[C@H](CC(=O)O)NC(=O)[C@H](CCC(N)=O)NC(=O)[C@H](CC(C)C)NC(=O)[C@H](CC(C)C)NC(=O)[C@H](CCCN)NC(=O)[C@H](CCCNC(=N)N)NC(=O)[C@H](C)NC(=O)[C@H](CO)NC(=O)[C@H](CC(C)C)NC(=O)[C@H](CCC(N)=O)NC(=O)[C@H](CC)NC(=O)[C@H](CC(C)C)NC(=O)[C@@H](NC(=O)[C@H](CCCN)NC(=O)[C@H](CCCNC(=N)N)NC(=O)[C@H](Cc1ccc(O)cc1)NC(=O)[C@H](CO)NC(=O)[C@H](CCC(N)=O)NC(=O)[C@@H](NC(=O)[C@H](Cc1ccccc1)NC(=O)[C@@H](NC(=O)[C@H](C)NC(=O)[C@H](CC(=O)O)NC(=O)[C@H](C)NC(=O)[C@H](Cc1ccc(O)cc1)NC)[C@@H](C)CC)[C@@H](C)O)C(C)C)[C@@H](C)CC)C(=O)N[C@@H](CC(=O)O)C(=O)N[C@@H](CCCNC(=N)N)C(=O)NCCCCC(N)=O) [P-22325 [N-Me-Tyr^1, Gln^8, Orn^12, Abu^15, Orn^21, Nle^27, Asp^28, Apa^30]hGHRH(1-30)NH2] | 3.8 nM | 1.14 JI-38 = 1 | – |
